According to publication PMC10497535, “Identification of the SNARE complex that mediates the fusion of multivesicular bodies with the plasma membrane in exosome secretion” (Journal of Extracellular Vesicles, 2023):

Key:
[1] = molecular target: T1, Syx-4 (residues 1-274, the cytoplasmic fragment) (human, UniProt Q12846 1-274); experiment: pull-down; 2 μM GST-VAMP-7 SNARE motif with 3 μM Syx-4 (1-274) and/or 3 μM SN-23 on glutathione Sepharose 4B, 4°C, 5 h; washed with 20 mM Tris-HCl pH 8.0, 150 mM NaCl, 1% Triton X-100; SDS-PAGE; conditions: both partners purified
T1 construct: syntaxin-4, human, cytoplasmic fragment, residues 1-274; Cloned into pET28a; 'purified as previously described'; also called cytoplasmic fragment of Syx-4; source: E. coli BL21 DE3, purified (Nickel-NTA)

[2] = molecular target: T2, recombinant SN-23, mutant of full-length human SNAP-23 (C79A, C80A, C83A, C85A, C87A, C112A) (human, UniProt O00161 1-211, C79A | C80A | C83A | C85A | C87A | C112A); experiment: as above; conditions: both partners purified
T2 construct: SNAP-23, human, full length (residues 1-211) with six cysteines changed to alanine; Cloned into pET28a; source: E. coli BL21 DE3, purified (Nickel-NTA)
T2 sequence (looked up): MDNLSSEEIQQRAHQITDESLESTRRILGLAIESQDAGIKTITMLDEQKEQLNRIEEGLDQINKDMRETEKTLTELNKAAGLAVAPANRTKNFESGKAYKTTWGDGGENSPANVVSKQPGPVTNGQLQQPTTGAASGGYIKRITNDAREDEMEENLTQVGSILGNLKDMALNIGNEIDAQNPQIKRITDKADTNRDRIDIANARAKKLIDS

B1: GST-tagged VAMP-7 SNARE motif (residues 125-185) (domain or fragment, human, UniProt P51809 125-185, looked up)
chain: KVMETQAQVDELKGIMVRNIDLVAQRGERLELLIDKTENLVDSSVTFKTTSRNLARAMCMK
notes: pGEX-6p-1; PreScission-cleavable GST tag, not cleaved for the pull-down; also called GST-VAMP-7 SNARE motif; source: E. coli BL21 DE3, purified (glutathione Sepharose 4B, eluted with glutathione); not shown: GST, N-terminal, kept
B1: binds [1]; binds [2].
